This note sets out measurements from patent publication JP2007535905A.

The target in the assay is SM5−1抗原(BIAcore測定に用いた形は記載なし). The assay can be described thus: BIAcore (Pharmacia), kinetic analysis after Karlsson et al.

B1: 抗ヒトSM5−1ヒト化抗体(ReSM5−1) (antibody, V domains shown)
VH: QVQLVQSGGGVVQPGRSLRLSCKASGYTFTSYVMHWVRQAPGKGLEWIGYIVPYNDGTKYNEKFKGRFTISSDKSKSTAFLQMDSLRPEDTAVYYCARGSRYDWYLDYWGQGTPVTVSS
VL: NIMMTQSPSSLSASVGDRVTITCKSSQSVLYSSNQKNYLAWYQQTPGKAPKLLIYWASTRESGVPSRFSGSGSGTDYTFTISSLQPEDIATYYCHQYFSSYTFGQGTKLQITR
B1 yielded a dissociation constant (Kd) of 9.31 nM. This counts as single-digit nanomolar.

Usually Kd stands for the free concentration of one partner at which half of the binding sites on the other are occupied at equilibrium, for simple one-to-one binding. Read a high Kd as lower affinity.
